The text below walks through data of EP0730609B1 (SMITHKLINE BEECHAM CORPORATION, dated 2005).

In experiment [1] the target is T1, recombinant human IL4 (E. coli, non-glycosylated) (human, UniProt P05112 25-153).
T1 construct: also called hIL4; hIL-4
T1 sequence (looked up): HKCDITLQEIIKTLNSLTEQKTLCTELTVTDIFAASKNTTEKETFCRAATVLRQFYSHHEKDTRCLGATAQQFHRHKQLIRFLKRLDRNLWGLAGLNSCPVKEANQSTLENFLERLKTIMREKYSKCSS
The experiment is described as follows: titration microcalorimetry, 25°C, pH 7.4, 150 mM NaCl.

In experiment [2] the target is T1, recombinant human IL4 (E. coli, …). The experiment is described as follows: cell-based or functional assay.
Experiment [3] shares this target. The experiment is described as follows: titration microcalorimetry, measured at 60°C and calculated for 25°C, pH 7.4, 150 mM NaCl.

B1: humanized 3B9 (IgG1) (antibody, V domains shown)
VH: QVTLRESGPALVKPTQTLTLTCTFSGFSLSTSGMGVSWIRQPPGKGLEWLAHIYWDDDKRYNPSLKSRLTISKDTSRNQVVLTMTNMDPVDTATYYCARRETVFYWYFDVWGRGTPVTVSS
VL: IVMTQSPDSLAVSLGERATINCKASQSVDYDGDSYMNWYQQKPGQPPKLLIYAASNLESGVPDRFSGSGSGTDFTLTISSLQAEDVAVYYCQQSNEDPPRFGGGTKVEIKR
As for B1, in experiment [1], the “-TΔS” value turned out to be 8.2 kcal/mol IL4, the ΔG is -13.6 kcal/mol IL4 and the ΔH was -21.8 kcal/mol IL4. Also, in experiment [2], the “B cell (inhibition of IL4-stimulated B lymphocyte proliferation), IC50” value came out at 0.047 nM; the “CD23 induction (inhibition of IL4-induced CD23 expression on B lymphocytes), IC50” value amounted to 0.333 nM; the “IgE synthesis (inhibition of IL4-driven IgE secretion), IC50” value stood at 0.054 nM; the “T cell (inhibition of IL4-stimulated T lymphocyte proliferation), IC50” value stood at 0.044 nM. Moreover, in experiment [3], the Kd – broadly, the constant that tells how readily two partners part at equilibrium – is 0.011 nM.
